Data on 40 sequences can be found in the nanobody polyreactivity screen of Harvey et al. (2022).

This data set is described as follows: yeast display, Sf9 membrane polyspecificity reagent, FACS + sequencing; frameworks hold sequencing errors. The essentials:
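A nanobody's polyreactivity label depends on the gate it was sorted from. Yeast display cells were stained with 10% biotinylated, detergent-solubilized Sf9 membrane reagent for 1 hour at 4 °C, enriched on streptavidin microbeads and sorted by FACS. The low and high (top ~1%) gates were set on anti-HA fluorescence for expression and streptavidin fluorescence for reagent binding.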
“QVQLVESGGGLVQAGGSLRLSCAASGIIFVENAMGWYRQAPGKERELVAAISWDGGSTYYADSVKGRFTISRDNAKNTVYLQMNSLKPEDTAVYYCAADLTISYSQEYYYWGQGTQVTVSS”: the “polyreactivity (PSR sort gate)” value is listed as “low polyreactivity”.

With “QVQLVESGGGLVQAGGSLRLSCAASGIIFVQYAMGWYRQAPGKERELVAGITRRGGSTYYADSVKGRFTISRDNAKNTVYLQMNSLKTEDTAVFYCAATRPGDVLYRNEYWGQGTQVTVSS”, the “polyreactivity (PSR sort gate)” value was “high polyreactivity”.

Consider “QVQLVESGGGLVQAGGSLRLSCAASGIIFVRYAMGWYRQAPGKERELVAAISSGGGSTYYADSVKGRFTISRDNAKNTVYLQMNSLKPEDTAVYYCATVVYPYSPRYDYWGQGTQVTVSS”, for which the “polyreactivity (PSR sort gate)” value is “high polyreactivity”.

For “QVQLVESGGGLVQAGGSLRLSCAASGIIFVRYAMGWYRQAPGKERELVAAITRNGGRTYYADSVKGRFTISRDNAKNTVYLQMNSLKPEDTAVYYCAAYPAYPGTLEMDYWGQGTQVTVSS”, the “polyreactivity (PSR sort gate)” value was “high polyreactivity”.

On to “QVQLVESGGGLVQAGGSLRLSCAASGIIFVSNAMGWYRQAPGKERELVATINWSDDSTYYADSVKGRFTISRDNAKNTVYLQMNSLKPEDTAVYYCNKELYPVGDYEYWGLGTQVTVSS”, for which the “polyreactivity (PSR sort gate)” value is given as “low polyreactivity”.

As for “QVQLVESGGGLVQAGGSLRLSCAASGIIFVYNTMGWYRQAPGKERELVAAISYSGGGTYYADSVKGRFTISRDNAKNTVYLQMNSLKPEDTAVYYCAAETYYAPYDYWGQGTQVTVSS”, the “polyreactivity (PSR sort gate)” value is recorded as “high polyreactivity”.

As to “QVQLVESGGGLVQAGGSLRLSCAASGIIFWGNAMGWYRQAPGKERELVATITGRGGSTYYADSVKGRFTISRDNAKNTVYLQMNSLKPEDTAVYYCAASGGRPIFFYDVWGGIVRHDYWGQGTQVTVSS”, the “polyreactivity (PSR sort gate)” value was “low polyreactivity”.

On to “QVQLVESGGGLVQAGGSLRLSCAASGIIFWHYAMGWYRQAPGKERELVAAISSRGGYTYYADSVKGRFTISRDNAKNTVSLQMNSLKPEDTAVYYCNAGYYTHRYRFLVQGDYWGQGTQVTVSS”, for which the “polyreactivity (PSR sort gate)” value is reported as “high polyreactivity”.

For “QVQLVESGGGLVQAGGSLRLSCAASGIIFWRYAMGWYRQAPGKERELVAAISRRGGSTYYADSVKGRFTISRDNAKITVYLQMNSLKPEDTAVYYCAVLDWTLHYRSDYWGQGTQVTVSS”, the “polyreactivity (PSR sort gate)” value was “high polyreactivity”.

For the sequence “QVQLVESGGGLVQAGGSLRLSCAASGIIFYDYAMGWSRQAPGKERELVATITRGGGTKYADSVKGRFTISRDNAKNTVYLQMNSLKPEDTAVYYCAADSHGVYEGDYWGQGTQVTVSS”, the “polyreactivity (PSR sort gate)” value was “low polyreactivity”.

For “QVQLVESGGGLVQAGGSLRLSCAASGIIFYDYAMGWYRPAPGKERELVAAINYSGGSTYYADSVKGRFTISRDNAKNTVYLQMNSLKPEDTAVYYCAADNAVWEYDYWGQGTQVTVSS”, the “polyreactivity (PSR sort gate)” value is reported as “low polyreactivity”.

As to “QVQLVESGGGLVQAGGSLRLSCAASGIIFYDYAMVWYRQAPGKERELVAAISWGGGSTSYADSVKGRFTISRDNAKNTVYLQMNSLKPEDTAVYYCNKVSLSKRRDYYWGQGTQVTVSS”, the “polyreactivity (PSR sort gate)” value is given as “high polyreactivity”.

As for “QVQLVESGGGLVQAGGSLRLSCAASGIIFYEFTMGWYRQAPGKERELVATISWSGGSTYYADSVKGRFTISRDNAKNTVYLQMNSLQPEDTAVYYCAADFADVQSISPDSAHEYDYWGQGTQVTVSS”, the “polyreactivity (PSR sort gate)” value is “low polyreactivity”.

Regarding “QVQLVESGGGLVQAGGSLRLSCAASGIIFYFYAMGWDSQAPGKERELVAAISGTGGRTYYADSVKGRFTISRDNAKNTVYLQMNSLKPEDTAVYYCAADRGGLRWFWQVLYDYWGQGTQVTESS”, the “polyreactivity (PSR sort gate)” value was “low polyreactivity”.

“QVQLVESGGGLVQAGGSLRLSCAASGIIFYFYAMGWYRQAPGKERELVAAISRGGSTKYADSVKGRFTISRDNAKNTVYLQMNSLKPEDTAVYYCAATRRRPSEYYYWGQGTQVTVSS”: the “polyreactivity (PSR sort gate)” value is reported as “high polyreactivity”.

As to “QVQLVESGGGLVQAGGSLRLSCAASGIIFYGYAMGWYRQAPGKERELVAGISSGGSTYYADSVKGRFTISRDNAKNTVYLQMNSLKPEDTAVYYCNADGGYSYESTDHYGYDYWGQGTQVTVSS”, the “polyreactivity (PSR sort gate)” value was “low polyreactivity”.

With “QVQLVESGGGLVQAGGSLRLSCAASGIIFYGYAMGWYRQATGKERELVAAISSGGGTNYADSVKGRFTISRDNAKNTVYLQMNSLKPEDTAVYYCAARQYRYYYWGQGTQVTVSS”, the “polyreactivity (PSR sort gate)” value was “high polyreactivity”.

Turning to “QVQLVESGGGLVQAGGSLRLSCAASGIIFYKYAMGSYRQSPWKERELVAVISRGGGSTYYADSVKGRFTISRDNAKNTVYLQMNSLKPEDTAVYYFAADPRVTRSYTYDYWGQGTQVTVSS”, the “polyreactivity (PSR sort gate)” value was “high polyreactivity”.

Turning to “QVQLVESGGGLVQAGGSLRLSCAASGIIFYLYAMGWYRQAPGKERELVAAISWRGGSTYYADSVKGRFTISRDNAKNTVYLQMNSLKPEDTAVYYCNKTQPIDLYGYWGQGTQVTVSS”, the “polyreactivity (PSR sort gate)” value is recorded as “high polyreactivity”.

Regarding “QVQLVESGGGLVQAGGSLRLSCAASGIIFYLYTMGWYRQAPGKERELVAAITRGGSTYYADSVKGRFTISRDNAKNTVYLQMNSLKPEDTSVYYCAAKHGPGYRRWYDYWGQGTQVTVSS”, the “polyreactivity (PSR sort gate)” value is recorded as “high polyreactivity”.

For the sequence “QVQLVESGGGLVQAGGSLRLSCAASGIIFYPYAMGVYRKAPGKEREMVADITSGGGTNYADSVKGRFTISRDYAKNTVYLKMNSLKPEDTAVYYCAAEVRGYHWGTYYEFYYWGQGTQVTVSS”, the “polyreactivity (PSR sort gate)” value is listed as “low polyreactivity”.

“QVQLVESGGGLVQAGGSLRLSCAASGIIFYPYAMGWYRQAPGKERELVAAISIGGGSTYYADSVKGRFTISRDNAKNTVYLQMNSLKPEDTAVYYCAAGTPYGILGYYYWGQGTQVTVSS”: the “polyreactivity (PSR sort gate)” value is “low polyreactivity”.

Consider “QVQLVESGGGLVQAGGSLRLSCAASGIIFYQNTMGWYRQAPGKERELVATITKRGGSTYYADSVKGRFTISRDNAKNTVYLQMNSLKPEDTAVYYCNAAKYAASYIGYGYWGQGTQVTVSS”, for which the “polyreactivity (PSR sort gate)” value is given as “high polyreactivity”.

“QVQLVESGGGLVQAGGSLRLSCAASGIIFYRYAMGWYRQAPGKERELVAAISGSGGRTYYADSVKGRFTISRDNAKNTVYLQMNSLKPEDTAVYYCARVYDIYHYFYAYGGDYWGQGTQVTVSS”: the “polyreactivity (PSR sort gate)” value is “high polyreactivity”.

Turning to “QVQLVESGGGLVQAGGSLRLSCAASGIIFYRYAMGWYRQAPGKERELVAAISSSGGSTYYADSVKGRFTISRDNAKNTVYLQMNSLKPEDTAVYYCARVTTVYDGRGFVDVKRGYWGQGTQVTVSS”, the “polyreactivity (PSR sort gate)” value was “high polyreactivity”.

Take “QVQLVESGGGLVQAGGSLRLSCAASGIIFYTNAMGWYRQAPGKEREFVAAINTSGGITYYADSVKGRFTISRDNAKNTVYLQMNSLKPEDTAVYYCAADQTYERHWVYYWGQGTQVTVSS”: the “polyreactivity (PSR sort gate)” value is recorded as “low polyreactivity”.

As for “QVQLVESGGGLVQAGGSLRLSCAASGIIFYVYAMGWYRQAPGKERELVAAISSGGRTNYADSVKGRFTISRDNAKNTVYLQMNSLKPEDTAVYYCAAKSVRRRLGYWGQGTQVTVSS”, the “polyreactivity (PSR sort gate)” value is reported as “high polyreactivity”.

Turning to “QVQLVESGGGLVQAGGSLRLSCAASGIIFYVYAMGWYRQAPGKERELVAAISSTSSTYADSVKGRFTISRDNAKNTVYLQMNSLKPEDTAVFYCNTDYSDGYPAFDYWGQGTQVTVSS”, the “polyreactivity (PSR sort gate)” value was “low polyreactivity”.

For “QVQLVESGGGLVQAGGSLRLSCAASGIIFYWNAMGWYRQAPGQEREFDASISGSGGSTYADSVKGRFTISRDNAMNTVYFQMKSLKPEDTAVYYCAVLYWRPGYDYLGQGTQVTVSS”, the “polyreactivity (PSR sort gate)” value is on record as “high polyreactivity”.

As for “QVQLVESGGGLVQAGGSLRLSCAASGIIFYWYAMGWYRQAPGKERELVAAISASGASTYYADSVKGRFTISRDNAKNTVYLQMNSLKPEDTAVYYCAAEHPWSRYDYWGQGTQVTVSS”, the “polyreactivity (PSR sort gate)” value is recorded as “high polyreactivity”.

Turning to “QVQLVESGGGLVQAGGSLRLSCAASGIIFYYAMGWYRQAPGKERELVASIRWSGDSTYYADSVKGRFTISRDNAKNTVYLQMNSLKPEDTAVYYCAAEPDSAVSYVSWRDYWGQGTQVTVSS”, the “polyreactivity (PSR sort gate)” value is on record as “low polyreactivity”.

For “QVQLVESGGGLVQAGGSLRLSCAASGIIFYYNAMGWYRQAPGKERELVAAIDDRGDSTYYADSVKGRFTISRDNAKNTVYLEMNSLKPEDTAVYYCATDGHYLYSWYKYDYWGQGTQVTVSS”, the “polyreactivity (PSR sort gate)” value is reported as “low polyreactivity”.

For “QVQLVESGGGLVQAGGSLRLSCAASGIIFYYNAMGWYRQAPGKERELVAAIDDRGDSTYYADSVKGRFTISRDNAKNTVYLQMNSLKPEDTAVYYCAARDRYLYFDAMDYWGQGTLVTVSS”, the “polyreactivity (PSR sort gate)” value is “low polyreactivity”.

Regarding “QVQLVESGGGLVQAGGSLRLSCAASGIIFYYYAMGWYRQAPGKERELVAAISRSGGITYYPDSVKGRFTISRDNAKNTEYFQMNSLKAEDTAVYYGNALRLVYYHPEDDYWGQGPQVTVSS”, the “polyreactivity (PSR sort gate)” value is recorded as “high polyreactivity”.

For “QVQLVESGGGLVQAGGSLRLSCAASGIIFYYYGMGWSRQAPGKEREFVAAISTSGGNTYYADSVKGRFTISRDNAKNTVYLQMNSLKPEDTAVYYCAADDWPWGDAGVDYWGQGTQVTVSS”, the “polyreactivity (PSR sort gate)” value was “low polyreactivity”.

For “QVQLVESGGGLVQAGGSLRLSCAASGIIIGGNAMGWYRQARGKERELVAAINSDDSTYYADSVKGRFTISRDNAKNTVYLQMNSLKPEDTAVYYCAVTETYYSPYSGYWYEYDHWGQGTQVTVSS”, the “polyreactivity (PSR sort gate)” value is “high polyreactivity”.

As for “QVQLVESGGGLVQAGGSLRLSCAASGIIILWNAMGWDRQAPGKERELVATISWTDGSTSYADSVKGRFTISRDNAKNTVYLQMNSLKPEDTAVYYCNVRHKSYRKSDYWGQGTQVTVSS”, the “polyreactivity (PSR sort gate)” value is listed as “low polyreactivity”.

As to “QVQLVESGGGLVQAGGSLRLSCAASGIIIPYYAMGWYRQAPGKERELVAAISSGGSTNYADSVKGRFTISRDNAKNTVYLQMNSLKPEDTAVYYCAAKYTSYASWPIWVVDQFDYWGQGTQVTVSS”, the “polyreactivity (PSR sort gate)” value is on record as “low polyreactivity”.

Regarding “QVQLVESGGGLVQAGGSLRLSCAASGIIIRGYAMGLYRQAPGKERELVAGITSGGRTYYADSVKGRFTISRDNAKNTVYLQMNSLKPEDTAVYYCNADAYGDDWKIYDYWGQVTQVTVSS”, the “polyreactivity (PSR sort gate)” value is listed as “low polyreactivity”.

Take “QVQLVESGGGLVQAGGSLRLSCAASGIIIVRYAMGWYRQAPGKERELVAAISWSGGRTYYADSVKGRFTISRDNAKNTVYFQINSLKPEDTAVYYCAAAPLYYHRRGYYYWGQGTQVTVSS”: the “polyreactivity (PSR sort gate)” value is “high polyreactivity”.
